As a reminder, the Kd is the constant that tells how readily two partners part at equilibrium.

T1: EhPHDK (PH domain containing protein kinase), full-length recombinant protein (E. histolytica, UniProt C4M4G9 1-433)
T1 sequence (looked up): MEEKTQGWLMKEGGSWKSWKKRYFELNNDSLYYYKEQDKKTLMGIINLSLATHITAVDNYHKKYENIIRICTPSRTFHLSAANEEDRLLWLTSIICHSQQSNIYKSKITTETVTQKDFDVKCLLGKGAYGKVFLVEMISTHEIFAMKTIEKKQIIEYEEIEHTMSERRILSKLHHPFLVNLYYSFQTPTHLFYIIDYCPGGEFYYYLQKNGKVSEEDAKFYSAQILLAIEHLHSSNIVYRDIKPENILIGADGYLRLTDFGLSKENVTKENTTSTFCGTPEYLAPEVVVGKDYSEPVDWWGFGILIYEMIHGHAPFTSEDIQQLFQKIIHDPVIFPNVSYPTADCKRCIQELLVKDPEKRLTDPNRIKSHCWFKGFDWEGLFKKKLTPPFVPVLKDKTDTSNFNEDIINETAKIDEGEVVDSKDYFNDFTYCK

B1: EhCaBP1 (calcium binding protein 1), recombinant (natural protein, E. histolytica, UniProt P38505 1-134, looked up)
chain: MAEALFKEIDVNGDGAVSYEEVKAFVSKKRAIKNEQLLQLIFKSIDADGNGEIDQNEFAKFYGSIQGQDLSDDKIGLKVLYKLMDVDGDGKLTKEEVTSFFKKHGIEKVAEQVMKADANGDGYITLEEFLEFSL

Assay [1] deals with T1, EhPHDK (PH domain containing protein …). Kind of assay: BLI. (In general: In BLI a coated tip is dipped into the sample, and binding shifts an interference pattern.)
Assay [2] concerns the target B1. Kind of assay: BLI.

In the case of B1, in assay [1], the Kd is 32 µM.
On to IYKSKITTETVTQKD [EhPHDK Peptide 2 (hinge region, IQ motif-like sequence)], for which the Kd in assay [2] was found to be 243 µM.

For the origin of these results see paper doi:10.1101/2025.10.24.684426 (bioRxiv, 2025).
